Reference: FireProtDB (doi:10.1021/bi9928694)

Conditions: Homo sapiens, reversible: yes, whole UniProt chain shown
[1] = pH 2.7, Thermal, DSC, glycine-HCl 0.05 M
[2] = pH 4, 10 °C, GdnHCl, CD, glycine-HCl 40 mM

B1: Lysozyme C wild type, P61626 (protein)
chain: MKALIVLGLVLLSVTVQGKVFERCELARTLKRLGMDGYRGISLANWMCLAKWESGYNTRATNYNAGDRSTDYGIFQINSRYWCNDGKTPGAVNACHLSCSALLQDNIADAVACAKRVVRDPQGIRAWVAWRNRCQNRDVRQYVQGCGV
Question: Which results are given for B1?
Answer: Tm [1]: 64.9 °C; heat capacity change of unfolding [1]: 1.58 kcal/mol/K; unfolding enthalpy (calorimetric) [1]: 114 kcal/mol; denaturant midpoint (higher = more stable) [2]: 3.96 M; unfolding free energy [2]: 14.3 kcal/mol
